B1: mAb-18 (antibody, V domains shown)
VH: QVQLQQSGPELVRPGVSVKISCKGSGYTFTDYAMHWVKQTHAKSLEWIGVISTYSGTTNYNQNFKGKATVTVDKSSSTAYMELARLTSEDSAIYYCARSGPLDYWGQGTSLTVSS
VL: ENVLTQSPAIMSASPGEKVTMTCRASSSVSSSYLHWYQQKSGASPKLWIYSTSNLASGVPERFSGSGSGTSYSLTISSVEAEDAATYYCQQYSGYPLTFGSGTKLEIK
notes: murine hybridoma antibody; also called murine antibody mAb-18
B2: mAb-99 (antibody, V domains shown)
VH: EVQLQQSGAELVRPGSSVKMSCKTSGYTFTNYGINWVKQRPRQGLEWIGYIYIGNGDIEYNAKFKGKATLTSDTSSSTAYMQLSSLTSEDSAIYFCARGRGLGHFDVWGTGTTVTVSS
VL: DVQITQSPSYLAASPGETITINCRASKSISKFLAWFQEKPGKTNKLLIYSGSTLQSGIPSRFSGSGSGTDFTLTISGLEPEDFAMYYCQQHNEYPWTFGGGTKLEIK
notes: murine hybridoma antibody; also called murine antibody mAb-99
B3: hAb18-2 (antibody, human IgG1, kappa, L234A L235A, V domains shown)
VH: EVQLVQSGAEVKKPGASVKVSCKASGYTFTDYAMHWVRQAPGQRLEWMGVISTYSGTTNYNQNFKGRVTITVDKSASTAYMELSSLRSEDTAVYYCARSGPLDYWGQGTTVTVSS
VL: ENVLTQSPDFQSVTPKEKVTITCRASSSVSSSYLHWYQQKPDQSPKLWIYSTSNLASGVPSRFSGSGSGTDYTLTINSLEAEDAATYYCQQYSGYPLTFGQGTKLEIKR
notes: humanized mAb-18: hAb18VH1 + hAb18VL2; human IgG1 (L234A, L235A) / kappa constant regions
B4: hAb18-16 (antibody, human IgG1, kappa, L234A L235A, V domains shown)
VH: B3 VH
VL: B3 VL with S31T
notes: humanized mAb-18: hAb18VH1 + hAb18VL2-10; human IgG1 (L234A, L235A) / kappa constant regions
B5: hAb18-6 (antibody, human IgG1, kappa, L234A L235A, V domains shown)
VH: B3 VH with A24G, M48I, V68A, I70V
VL: B3 VL
notes: humanized mAb-18: hAb18VH3 + hAb18VL2; human IgG1 (L234A, L235A) / kappa constant regions
B6: hAb18-13 (antibody, human IgG1, kappa, L234A L235A, V domains shown)
VH: B3 VH
VL: B3 VL with S28N, N54Q
notes: humanized mAb-18: hAb18VH1 + hAb18VL2-7; human IgG1 (L234A, L235A) / kappa constant regions
B7: hAb18-7 (antibody, human IgG1, kappa, L234A L235A, V domains shown)
VH: B3 VH
VL: B3 VL with N54Q
notes: humanized mAb-18: hAb18VH1 + hAb18VL2-1; human IgG1 (L234A, L235A) / kappa constant regions
B8: hAb18-19 (antibody, human IgG1, kappa, L234A L235A, V domains shown)
VH: B3 VH
VL: B3 VL with S28N
notes: humanized mAb-18: hAb18VH1 + hAb18VL2-13; human IgG1 (L234A, L235A) / kappa constant regions
B9: hAb18-15 (antibody, human IgG1, kappa, L234A L235A, V domains shown)
VH: B3 VH
VL: B3 VL with A25V
notes: humanized mAb-18: hAb18VH1 + hAb18VL2-9; human IgG1 (L234A, L235A) / kappa constant regions
B10: hAb18-3 (antibody, human IgG1, kappa, L234A L235A, V domains shown)
VH: B3 VH with A24G, I70V
VL: B3 VL with N2I, Y72F
notes: humanized mAb-18: hAb18VH2 + hAb18VL1; human IgG1 (L234A, L235A) / kappa constant regions
B11: hAb18-18 (antibody, human IgG1, kappa, L234A L235A, V domains shown)
VH: B3 VH
VL: B3 VL with V29L
notes: humanized mAb-18: hAb18VH1 + hAb18VL2-12; human IgG1 (L234A, L235A) / kappa constant regions
B12: hAb18-11 (antibody, human IgG1, kappa, L234A L235A, V domains shown)
VH: B3 VH
VL: B3 VL with S30T, N54Q
notes: humanized mAb-18: hAb18VH1 + hAb18VL2-5; human IgG1 (L234A, L235A) / kappa constant regions
B13: hAb18-12 (antibody, human IgG1, kappa, L234A L235A, V domains shown)
VH: B3 VH
VL: B3 VL with V29L, N54Q
notes: humanized mAb-18: hAb18VH1 + hAb18VL2-6; human IgG1 (L234A, L235A) / kappa constant regions
B14: hAb18-4 (antibody, human IgG1, kappa, L234A L235A, V domains shown)
VH: B3 VH with A24G, I70V
VL: B3 VL
notes: humanized mAb-18: hAb18VH2 + hAb18VL2; human IgG1 (L234A, L235A) / kappa constant regions
B15: hAb18-9 (antibody, human IgG1, kappa, L234A L235A, V domains shown)
VH: B3 VH
VL: B3 VL with A25V, N54Q
notes: humanized mAb-18: hAb18VH1 + hAb18VL2-3; human IgG1 (L234A, L235A) / kappa constant regions
B16: hAb18-1 (antibody, human IgG1, kappa, L234A L235A, V domains shown)
VH: B3 VH
VL: B3 VL with N2I, Y72F
notes: humanized mAb-18: hAb18VH1 + hAb18VL1; human IgG1 (L234A, L235A) / kappa constant regions
B17: hAb18-14 (antibody, human IgG1, kappa, L234A L235A, V domains shown)
VH: B3 VH
VL: B3 VL with S26T
notes: humanized mAb-18: hAb18VH1 + hAb18VL2-8; human IgG1 (L234A, L235A) / kappa constant regions
B18: hAb18-17 (antibody, human IgG1, kappa, L234A L235A, V domains shown)
VH: B3 VH
VL: B3 VL with S30T
notes: humanized mAb-18: hAb18VH1 + hAb18VL2-11; human IgG1 (L234A, L235A) / kappa constant regions
B19: hAb18-10 (antibody, human IgG1, kappa, L234A L235A, V domains shown)
VH: B3 VH
VL: B3 VL with S31T, N54Q
notes: humanized mAb-18: hAb18VH1 + hAb18VL2-4; human IgG1 (L234A, L235A) / kappa constant regions
B20: hAb18-5 (antibody, human IgG1, kappa, L234A L235A, V domains shown)
VH: B3 VH with A24G, M48I, V68A, I70V
VL: B3 VL with N2I, Y72F
notes: humanized mAb-18: hAb18VH3 + hAb18VL1; human IgG1 (L234A, L235A) / kappa constant regions
B21: mAb18-hIgG1 (antibody, V domains shown)
VH: B1 VH
VL: ENVLTQSPAIMSASPGEKVTMTCRASSSVSSSYLHWYQQKSGASPKLWIYSTSNLASGVPERFSGSGSGTSYSLTISSVEAEDAATYYCQQYSGYPLTFGSGTKLEIKR
notes: chimeric: murine mAb-18 variable regions on human IgG1 (L234A, L235A) / kappa constant regions; also called chimeric antibody of mAb18
B22: mAb99-hIgG1 (antibody, V domains shown)
VH: B2 VH
VL: DVQITQSPSYLAASPGETITINCRASKSISKFLAWFQEKPGKTNKLLIYSGSTLQSGIPSRFSGSGSGTDFTLTISGLEPEDFAMYYCQQHNEYPWTFGGGTKLEIKR
notes: chimeric: murine mAb-99 variable regions on human IgG1 (L234A, L235A) / kappa constant regions; also called chimeric antibody of mAb99
B23: hAb99-18 (antibody, human IgG1, kappa, L234A L235A, V domains shown)
VH: EVQLVQSGAEVKKPGASVKVSCKASGYTFTNYGINWVRQAPGQGLEWMGYIYIGQGDIEYNAKFKGRVTITSDTSASTAYMELSSLRSEDTAVYYCARGRGLGHFDVWGQGTTVTVSS
VL: DIQMTQSPSSLSASVGDRVTITCRASKSISKFLAWFQQKPGKTNKLLIYSGSTLQSGVPSRFSGSGSGTDFTLTISSLQPEDFATYYCQQHNEYPWTFGGGTKVEIKR
notes: humanized mAb-99: hAb99VH2-QG + hAb99VL2; human IgG1 (L234A, L235A) / kappa constant regions
B24: hAb99-20 (antibody, human IgG1, kappa, L234A L235A, V domains shown)
VH: B23 VH with A24T, Q55N, G56L, Y95F
VL: B23 VL
notes: humanized mAb-99: hAb99VH3-NL + hAb99VL2; human IgG1 (L234A, L235A) / kappa constant regions
B25: hAb99-21 (antibody, human IgG1, kappa, L234A L235A, V domains shown)
VH: B23 VH with A24T, Y95F
VL: B23 VL
notes: humanized mAb-99: hAb99VH3-QG + hAb99VL2; human IgG1 (L234A, L235A) / kappa constant regions
B26: hAb99-19 (antibody, human IgG1, kappa, L234A L235A, V domains shown)
VH: B23 VH with A24T, Q55N, G56V, Y95F
VL: B23 VL
notes: humanized mAb-99: hAb99VH3-NV + hAb99VL2; human IgG1 (L234A, L235A) / kappa constant regions

The source of these data is patent publication US20240270874A1 (JIANGSU HENGRUI PHARMACEUTICALS, published 2024).

Positions count from the first letter of the chain named. In names and notes the source's numbering stands.

In the first assay the target is T1, human FGFR1c on cells (human, UniProt P11362 22-822).
T1 construct: whole, on cells; also called hFGFR1c; CHOK1-hFGFR1c
T1 sequence (P11362 22-822): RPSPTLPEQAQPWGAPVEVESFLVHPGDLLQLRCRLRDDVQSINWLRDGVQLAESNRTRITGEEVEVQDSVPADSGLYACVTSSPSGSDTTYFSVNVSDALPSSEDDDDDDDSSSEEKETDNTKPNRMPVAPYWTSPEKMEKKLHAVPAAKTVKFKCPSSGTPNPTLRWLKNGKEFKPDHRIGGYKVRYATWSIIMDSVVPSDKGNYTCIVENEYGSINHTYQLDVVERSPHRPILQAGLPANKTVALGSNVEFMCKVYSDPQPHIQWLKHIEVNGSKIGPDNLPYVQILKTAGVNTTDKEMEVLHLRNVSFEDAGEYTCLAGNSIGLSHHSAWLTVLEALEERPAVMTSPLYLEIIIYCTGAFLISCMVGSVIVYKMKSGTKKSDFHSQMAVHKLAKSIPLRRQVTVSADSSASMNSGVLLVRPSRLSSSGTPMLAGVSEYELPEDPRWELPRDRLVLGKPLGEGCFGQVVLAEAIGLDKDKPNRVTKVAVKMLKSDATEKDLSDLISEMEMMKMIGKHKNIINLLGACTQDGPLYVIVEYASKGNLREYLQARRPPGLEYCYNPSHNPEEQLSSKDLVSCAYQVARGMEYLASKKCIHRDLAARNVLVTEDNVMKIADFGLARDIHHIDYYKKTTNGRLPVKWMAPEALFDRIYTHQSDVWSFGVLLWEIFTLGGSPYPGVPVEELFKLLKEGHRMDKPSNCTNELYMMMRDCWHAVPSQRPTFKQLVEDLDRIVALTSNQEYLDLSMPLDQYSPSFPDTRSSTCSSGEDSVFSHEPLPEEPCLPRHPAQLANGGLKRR
In words: hybridoma clone screening on recombinant cells.
On to B1, for which the binding result is recorded as “no binding”. The same measure, in the same setting: to B2 belongs “no binding”.

Another assay deals with T2, human KLB on CHOK1-hKLB cells (human, UniProt Q86Z14 1-1044).
T2 construct: whole, on cells; also called human KLB antigen; β-Klotho
T2 sequence (looked up): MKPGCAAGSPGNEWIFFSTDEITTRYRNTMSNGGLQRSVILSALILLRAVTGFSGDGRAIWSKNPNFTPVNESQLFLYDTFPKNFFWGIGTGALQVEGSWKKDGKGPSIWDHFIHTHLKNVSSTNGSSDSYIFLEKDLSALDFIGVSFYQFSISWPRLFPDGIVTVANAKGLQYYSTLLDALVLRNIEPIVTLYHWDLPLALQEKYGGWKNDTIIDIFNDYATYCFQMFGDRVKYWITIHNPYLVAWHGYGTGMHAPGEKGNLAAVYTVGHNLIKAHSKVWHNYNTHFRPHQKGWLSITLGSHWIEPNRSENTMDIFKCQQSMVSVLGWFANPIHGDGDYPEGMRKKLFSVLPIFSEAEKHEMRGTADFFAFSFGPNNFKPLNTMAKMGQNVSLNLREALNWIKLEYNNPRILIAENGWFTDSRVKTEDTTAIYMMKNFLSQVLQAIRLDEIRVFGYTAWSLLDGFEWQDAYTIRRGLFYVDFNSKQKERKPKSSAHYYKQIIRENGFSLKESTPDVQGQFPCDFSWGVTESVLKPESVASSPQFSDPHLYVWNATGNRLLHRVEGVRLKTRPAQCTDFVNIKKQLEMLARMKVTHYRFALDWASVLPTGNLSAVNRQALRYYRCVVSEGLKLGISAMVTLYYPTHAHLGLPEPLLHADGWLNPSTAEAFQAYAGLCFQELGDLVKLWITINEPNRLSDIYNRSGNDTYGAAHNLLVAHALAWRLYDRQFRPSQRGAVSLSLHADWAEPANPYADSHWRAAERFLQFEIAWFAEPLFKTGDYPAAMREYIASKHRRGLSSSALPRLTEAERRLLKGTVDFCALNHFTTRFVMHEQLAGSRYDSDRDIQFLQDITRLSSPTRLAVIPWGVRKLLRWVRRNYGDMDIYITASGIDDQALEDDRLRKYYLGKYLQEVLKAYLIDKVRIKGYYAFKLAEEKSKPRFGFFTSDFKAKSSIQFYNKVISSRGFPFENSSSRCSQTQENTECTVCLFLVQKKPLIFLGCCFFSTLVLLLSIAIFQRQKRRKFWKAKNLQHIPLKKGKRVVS
In words: flow cytometry on CHOK1-hKLB cells. From the text: The above heavy chain variable regions were fused to the heavy chain constant region (set forth in SEQ ID NO: 22) and the light chain variable regions were fused to the light chain constant region (set forth in SEQ ID NO: 23) to construct anti-KLB antibodies, and the binding activity of the obtained antibodies for CHOK1-hKLB was detected (see Test Example 2 of the present disclosure for the experimental method).
The binding ability of the antibodies for CHOK1 cell strains CHOK1-hKLB and CHOK1-cynoKLB overexpressing human KLB and monkey KLB (see Example 1 for specific preparation procedure), respectively, was detected by flow cytometry. The specific procedure was as follows: the above cells were cultured in 10% FBS-containing IMDM medium and incubated in an incubator at 37° C. and 5% CO₂ for 2 days. The cells were then added to a cell plate at 1×10⁵ cells per well, centrifuged at 300 g for 5 min, and then washed once with 1% BSA. The antibody diluted in gradient was added to the cell plate at 100 μL per well, and the mixture was incubated at 4° C. for 1 h and washed once with 1% BSA. The diluted (1:400) APC-goat anti-human IgG Fc fluorescent secondary antibody was added at 100 μL per well, and the resulting mixture was incubated at 4° C. for 1 h. The plate was washed three times with 1% BSA, PBS was added at 100 μL per well, and the plate was read.
Take B3: a half-maximal response (EC50) required 1.58 nM.

In the case of B4, a half-maximal response (EC50) required 2.4 nM.

Turning to B5, the EC50 (as a rule, the concentration giving half of the maximal effect) was determined as 2 nM.

B6 gave a half-maximal effective concentration (EC50) of 5.4 nM. With B7, it took 2.4 nM to reach a half-maximal effect (EC50). On the same count and under the same terms, to B8 belongs 4.1 nM; to B9, 1.9 nM; to B10, 1.9 nM. Take B11: the concentration for a half-maximal effect (EC50) was 1.7 nM.

B12: the EC50 worked out at 2.7 nM. Same read-out and setting: to B13 belongs 1.9 nM; to B14, 2 nM.

Molecule B15 gave an EC50 of 2.4 nM. Still for that read-out and setting: to B16 belongs 1.34 nM; to B17, 1.6 nM. Take B18: the response was half-maximal at 1.8 nM (EC50). Still for that read-out and setting: to B19 belongs 2.7 nM; to B20, 1.8 nM; to B21, 2.16 nM. The same measure, in the same setting: to B22 belongs 0.97 nM.

Molecule B23 had an EC50 of 0.43 nM. Same read-out and setting: to B24 belongs 0.41 nM. In turn, B25 displayed an EC50 of 0.45 nM. Still for that read-out and setting: to B26 belongs 0.38 nM.
